Data taken from patent US20220195054A1 (BERGEN TEKNOLOGIOVERF RING, published 2022).
Where two headings read alike, the source gives them in different places.

Experiments:
[1] = biological target: T1, human Axl receptor on cells (MDA-MB-231, HeLa, LX2, Axl-positive cells) (human, UniProt P30530 26-894); experiment: flow cytometry on MDA-MB-231 cells, APC-conjugated anti-human IgG F(ab')2 detection
T1 construct: Endogenous receptor of human tumour cell lines
Description: (§1) The cells were collected by centrifugation at 200 g for 5 min. The antibody was diluted for total concentration in PBS containing 0.2% bovine serum albumin (BSA). Cell staining was performed using 200 μL of cell suspension comprising 200 000 cells for 30 min at room temperature. […] After two washing steps with PBS/0.2% BSA, the cells were resuspended in 200 μL PBS and kept on ice before analysis on Fortessa flow cytometer (BD Biosciences).

[2] = biological target: T2, recombinant human Axl-Fc chimera (rhAxl-Fc; R&D Systems, Cat. no. 154-AL) (human, UniProt P30530 26-451); experiment: SPR (Biacore 3000, 25 C), rhAxl-Fc immobilised; ln2/koff
T2 construct: Bought construct; also called rhAxi-Fc; Hu-Axl-Fc; Fc part of the bought chimera not given

[3] = biological target: T2, recombinant human Axl-Fc chimera …; experiment: SPR (Biacore 3000, 25 C), rhAxl-Fc immobilised (190 RU), antibody as analyte, koff/kon
Description: (§2) The precise kinetic analysis was performed using BIA evaluation software and curve fitting according to 1:1 Langmuir binding model.

[4] = biological target: T1, human Axl receptor on cells …; experiment: flow cytometry on MDA-MB-231 cells, APC-conjugated anti-human IgG F(ab')2 detection; remark: listed apart in the source
[5] = biological target: T2, recombinant human Axl-Fc chimera …; experiment: SPR (Biacore 3000, 25 C), rhAxl-Fc immobilised (190 RU), antibody as analyte, 1:1 Langmuir
Description: as §2

[6] = biological target: T1, human Axl receptor on cells …; experiment: cell-based or functional assay
[7] = biological target: T1, human Axl receptor on cells …; experiment: flow cytometry titration on MDA-MB-231 cells, Kd of the fitted curve, the axis of the fitted curves is Conc. (nM) [table under the graph]
Description: as §1

[8] = biological target: T2, recombinant human Axl-Fc chimera …; experiment: SPR two-injection competition on immobilised Axl-Fc; first injection

B1: chimeric monoclonal antibody 10G5 (mouse variable/human constant IgG1) (antibody, V domains shown)
VH: QVQLQQSGAELVRPGASVKLSCKASGYSFTDFYINWVRQRPGQGLEWIARIFPGGDNTYYNEKFKGKATLTAEESSSTAYIQLSSLTSEDSAVYFCARRGLYYAMDYWGQGISVTVSS
VL: DVLMTQTPLSLPVSLGDQASISCRSSQSLVHSNGIPYLHWYLQKPGQSPKLLIYRVSNRFSGVPDRFSGSGSGTDFTLKISRVEAEDLGVYFCSQGTHVPPTFGGGTKLEIK
notes: also called c10G5; C10G5
[1]
  EC50 (read off the curve): ~0.1 nM
[2]
  Half-life (t1/2): 1.14 h
[3]
  Kd: 0.103 nM
[4]
  EC50 (read off the curve): ~0.2 nM
[5]
  koff: 0.000169 s⁻¹
  kon: 1.64e+06 M⁻¹ s⁻¹
[6]
  EC50 (pM), killing of MDA-MB-231 cells by antibody coupled to Saporin (FabFc-ZAP), XTT/PMS viability after 72 hrs: 5.71 pM
[7]
  Kd: 0.0922 nM
[8]
  1st Response: ~170
